Assay results taken from paper PMC7804152, “Structural basis for the multi-activity factor Rad5 in replication stress tolerance”.

How the values were obtained:
His-KlRad5 = target: T1, His-KlRad5 (Kluyveromyces lactis, UniProt Q6CJM4 163-1114); experiment: fluorescence polarization; FP: 20 mM Tris pH 7.5, 50 mM (dsDNA, KlHIRAN) or 70 mM (ssDNA) NaCl, 2 mM MgCl2, 1 nM DNA, room temp; EMSA: 20 mM Tris pH 7.5, 100 mM KCl, 0.5 mM DTT, 3% glycerol, 2 mM MgCl2, 250 ug/mL BSA, 4 C; pull-down: 20 mM Tris pH 7.5, 50 mM NaCl, 4 C; conditions: protein: recombinant; tags: N-terminal His6; label: 5'-FAM; blunt
T1 sequence: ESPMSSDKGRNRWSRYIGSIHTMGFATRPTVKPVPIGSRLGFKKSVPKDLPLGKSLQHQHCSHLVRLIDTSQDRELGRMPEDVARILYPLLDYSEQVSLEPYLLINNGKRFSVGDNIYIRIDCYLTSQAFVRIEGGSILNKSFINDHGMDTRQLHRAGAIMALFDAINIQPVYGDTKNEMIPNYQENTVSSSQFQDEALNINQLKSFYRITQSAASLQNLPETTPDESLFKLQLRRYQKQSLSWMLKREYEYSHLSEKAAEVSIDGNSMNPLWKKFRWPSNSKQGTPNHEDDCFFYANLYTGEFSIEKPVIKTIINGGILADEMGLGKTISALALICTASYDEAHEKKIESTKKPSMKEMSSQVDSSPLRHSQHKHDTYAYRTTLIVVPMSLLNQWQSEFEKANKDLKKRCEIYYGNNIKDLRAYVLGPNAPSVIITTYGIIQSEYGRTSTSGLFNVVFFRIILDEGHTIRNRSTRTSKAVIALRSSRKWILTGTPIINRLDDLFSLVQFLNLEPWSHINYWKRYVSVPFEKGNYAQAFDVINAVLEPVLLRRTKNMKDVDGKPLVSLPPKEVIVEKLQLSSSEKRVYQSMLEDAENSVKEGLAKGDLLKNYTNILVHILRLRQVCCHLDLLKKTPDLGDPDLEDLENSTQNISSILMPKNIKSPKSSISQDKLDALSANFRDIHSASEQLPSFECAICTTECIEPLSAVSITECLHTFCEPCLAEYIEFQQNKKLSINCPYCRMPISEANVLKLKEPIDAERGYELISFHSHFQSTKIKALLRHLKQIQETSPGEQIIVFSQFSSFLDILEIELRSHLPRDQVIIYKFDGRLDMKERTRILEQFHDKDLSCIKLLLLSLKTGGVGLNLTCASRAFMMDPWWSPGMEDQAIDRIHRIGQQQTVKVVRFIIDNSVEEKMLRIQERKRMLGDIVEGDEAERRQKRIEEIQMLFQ

KlRad5 [1] = target: T2, KlRad5 (Kluyveromyces lactis, UniProt Q6CJM4 163-1114); experiment: fluorescence polarization; 50 mM NaCl; high affinity, Kd only in figure; FP: 20 mM Tris pH 7.5, 50 mM (dsDNA, KlHIRAN) or 70 mM (ssDNA) NaCl, 2 mM MgCl2, 1 nM DNA, room temp; EMSA: 20 mM Tris pH 7.5, 100 mM KCl, 0.5 mM DTT, 3% glycerol, 2 mM MgCl2, 250 ug/mL BSA, 4 C; pull-down: 20 mM Tris pH 7.5, 50 mM NaCl, 4 C; conditions: protein: recombinant; tags: none; label: 5'-FAM; blunt
T2 sequence: T1 sequence

KlRad5 [2] = target: T2, KlRad5; experiment: pull-down; 50 mM NaCl; FP: 20 mM Tris pH 7.5, 50 mM (dsDNA, KlHIRAN) or 70 mM (ssDNA) NaCl, 2 mM MgCl2, 1 nM DNA, room temp; EMSA: 20 mM Tris pH 7.5, 100 mM KCl, 0.5 mM DTT, 3% glycerol, 2 mM MgCl2, 250 ug/mL BSA, 4 C; pull-down: 20 mM Tris pH 7.5, 50 mM NaCl, 4 C; conditions: protein: recombinant; tags: none; label: 5'-biotin; blunt, self-annealing, 2 copies of D1
KlRad5 [3] = target: T2, KlRad5; experiment: hydrogen-deuterium exchange MS; 200 mM NaCl; protection of 548-554, 684-700, 1039-1049, 1081-1092; FP: 20 mM Tris pH 7.5, 50 mM (dsDNA, KlHIRAN) or 70 mM (ssDNA) NaCl, 2 mM MgCl2, 1 nM DNA, room temp; EMSA: 20 mM Tris pH 7.5, 100 mM KCl, 0.5 mM DTT, 3% glycerol, 2 mM MgCl2, 250 ug/mL BSA, 4 C; pull-down: 20 mM Tris pH 7.5, 50 mM NaCl, 4 C; conditions: protein: recombinant; tags: none; blunt, self-annealing, 2 copies of D1
KlHIRAN = target: T3, KlHIRAN (Kluyveromyces lactis, UniProt Q6CJM4 174-341); experiment: fluorescence polarization; 50 mM NaCl; stronger than blunt dsDNA; FP: 20 mM Tris pH 7.5, 50 mM (dsDNA, KlHIRAN) or 70 mM (ssDNA) NaCl, 2 mM MgCl2, 1 nM DNA, room temp; EMSA: 20 mM Tris pH 7.5, 100 mM KCl, 0.5 mM DTT, 3% glycerol, 2 mM MgCl2, 250 ug/mL BSA, 4 C; pull-down: 20 mM Tris pH 7.5, 50 mM NaCl, 4 C; conditions: protein: recombinant, tags: intein-CBD cleaved off
T3 sequence: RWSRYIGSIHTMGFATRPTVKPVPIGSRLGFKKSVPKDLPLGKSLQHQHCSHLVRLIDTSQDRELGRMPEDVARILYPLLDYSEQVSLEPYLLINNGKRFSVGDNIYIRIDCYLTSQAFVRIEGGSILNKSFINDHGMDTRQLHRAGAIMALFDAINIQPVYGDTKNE

B1: D2a/D2b dsDNA (dsDNA)
DNA 1: ACCAGTGCCAGTGAT
DNA 2: ATCACTGGCACTGGT
Q: Does B1 bind (His-KlRad5)?
A: Result: binds

Q: Does B1 bind (KlRad5 [1])?
A: Result: binds

B2: D1 dsDNA, 5'-biotin (dsDNA)
DNA 1: TCGGATCCTCTAGACAGCTCCATGCATGGAGCTGTCTAGAGGATCCGA
DNA 2: B2 DNA 1
Q: Does B2 bind (KlRad5 [2])?
A: Result: binds

B3: D1 dsDNA, unlabelled (dsDNA)
DNA 1: B2 DNA 1
DNA 2: B2 DNA 1
Q: Does B3 bind (KlRad5 [3])?
A: Result: binds

Q: Does CAACGTCATAGACGATTACATTGCTACATGGAGCTGTCTAGAGGATCCGA (ssDNA) [D3a ssDNA] bind (KlHIRAN; label: 5'-FAM)?
A: Result: binds

B4: D3a/D3c 5'-overhang dsDNA (dsDNA)
DNA 1: CAACGTCATAGACGATTACATTGCTACATGGAGCTGTCTAGAGGATCCGA
DNA 2: TCGGATCCTCTAGACAGCTCCATGT
Q: Does B4 bind (KlHIRAN; label: 5'-FAM on D3a, 5' overhang 25 nt (D3a))?
A: Result: binds

B5: D3a/D3d 3'-overhang dsDNA (dsDNA)
DNA 1: B4 DNA 1
DNA 2: AGCAATGTAATCGTCTATGACGTTG
Q: Does B5 bind (KlHIRAN; label: 3'-FAM on D3a, 3' overhang 25 nt (D3a))?
A: Result: binds
